Biological target: the molecule itself
Experiment: native gel or EMSA

B1: His-tagged Sbm (enzyme, E. coli, UniProt P27253 1-714, looked up)
chain: MSNVQEWQQLANKELSRREKTVDSLVHQTAEGIAIKPLYTEADLDNLEVTGTLPGLPPYVRGPRATMYTAQPWTIRQYAGFSTAKESNAFYRRNLAAGQKGLSVAFDLATHRGYDSDNPRVAGDVGKAGVAIDTVEDMKVLFDQIPLDKMSVSMTMNGAVLPVLAFYIVAAEEQGVTPDKLTGTIQNDILKEYLCRNTYIYPPKPSMRIIADIIAWCSGNMPRFNTISISGYHMGEAGANCVQQVAFTLADGIEYIKAAISAGLKIDDFAPRLSFFFGIGMDLFMNVAMLRAARYLWSEAVSGFGAQDPKSLALRTHCQTSGWSLTEQDPYNNVIRTTIEALAATLGGTQSLHTNAFDEALGLPTDFSARIARNTQIIIQEESELCRTVDPLAGSYYIESLTDQIVKQARAIIQQIDEAGGMAKAIEAGLPKRMIEEASAREQSLIDQGKRVIVGVNKYKLDHEDETDVLEIDNVMVRNEQIASLERIRATRDDAAVTAALNALTHAAQHNENLLAAAVNAARVRATLGEISDALEVAFDRYLVPSQCVTGVIAQSYHQSEKSASEFDAIVAQTEQFLADNGRRPRILIAKMGQDGHDRGAKVIASAYSDLGFDVDLSPMFSTPEEIARLAVENDVHVVGASSLAAGHKTLIPELVEALKKWGREDICVVAGGVIPPQDYAFLQERGVAAIYGPGTPMLDSVRDVLNLISQHHD
- stoichiometry N: 2

Source: PMC2741639 (Microbiological research, 2008)
